Test results: the supplement of paper PMC11246515
± gives the standard deviation of the averaged measurements.

Test: total protein half-life in vivo (active degradation + dilution); higher = more stable protein
[1] = E. coli NCM3722 delta-clpP delta-lon delta-hslV, growth: N-lim chemostat, doubling time 6 h
[2] = E. coli NCM3722 delta-clpP, growth: N-lim chemostat, doubling time 6 h
[3] = E. coli NCM3722 delta-hslV, growth: N-lim chemostat, doubling time 6 h
[4] = E. coli NCM3722 delta-lon, growth: N-lim chemostat, doubling time 6 h
[5] = E. coli NCM3722 delta-smpB, growth: N-lim chemostat, doubling time 6 h
[6] = wild type E. coli NCM3722, growth: C-lim chemostat, doubling time 3 h
[7] = wild type E. coli NCM3722, growth: C-lim chemostat, doubling time 6 h
[8] = wild type E. coli NCM3722, growth: C-lim chemostat, doubling time 12 h
[9] = wild type E. coli NCM3722, growth: N-lim chemostat, doubling time 6 h
[10] = wild type E. coli NCM3722, growth: N-lim chemostat, doubling time 12 h
[11] = wild type E. coli NCM3722, growth: P-lim chemostat, doubling time 6 h
[12] = wild type E. coli NCM3722, growth: P-lim chemostat, doubling time 12 h

MSFVVIIPARYASTRLPGKPLVDINGKPMIVHVLERARESGAERIIVATDHEDVARAVEAAGGEVCMTRADHQSGTERLAEVVEKCAFSDDTVIVNVQGDEPMIPATIIRQVADNLAQRQVGMATLAVPIHNAEEAFNPNAVKVVLDAEGYALYFSRATIPWDRDRFAEGLETVGDNFLRHLGIYGYRAGFIRRYVNWQPSPLEHIEMLEQLRVLWYGEKIHVAVAQEVPGTGVDTPEDLERVRAEMR
total protein half-life in vivo [1]: 4.88 ± 0.51 h | total protein half-life in vivo [2]: 4.7 ± 0.29 h | total protein half-life in vivo [3]: 4.68 ± 0.45 h | total protein half-life in vivo [4]: 4.949 ± 0.04 h | total protein half-life in vivo [5]: 4.68 ± 0.18 h | total protein half-life in vivo [6]: 2.84 ± 0.45 h | total protein half-life in vivo [7]: 6.6 ± 0.59 h | total protein half-life in vivo [8]: 10.8 ± 0.44 h | total protein half-life in vivo [9]: 4.72 ± 0.32 h | total protein half-life in vivo [10]: 7.79 ± 0.56 h | total protein half-life in vivo [11]: 5.81 ± 0.29 h | total protein half-life in vivo [12]: 12.6 ± 0.66 h

MTTNTVSRKVAWLRVVTLAVAAFIFNTTEFVPVGLLSDIAQSFHMQTAQVGIMLTIYAWVVALMSLPFMLMTSQVERRKLLICLFVVFIASHVLSFLSWSFTVLVISRIGVAFAHAIFWSITASLAIRMAPAGKRAQALSLIATGTALAMVLGLPLGRIVGQYFGWRMTFFAIGIGALITLLCLIKLLPLLPSEHSGSLKSLPLLFRRPALMSIYLLTVVVVTAHYTAYSYIEPFVQNIAGFSANFATALLLLLGGAGIIGSVIFGKLGNQYASALVSTAIALLLVCLALLLPAANSEIHLGVLSIFWGIAMMIIGLGMQVKVLALAPDATDVAMALFSGIFNIGIGAGALVGNQVSLHWSMSMIGYVGAVPAFAALIWSIIIFRRWPVTLEEQTQ
total protein half-life in vivo [1]: 5.1 ± 0.12 h | total protein half-life in vivo [2]: 4.77 h | total protein half-life in vivo [3]: 4.16 h | total protein half-life in vivo [5]: 4.997 ± 0.0071 h | total protein half-life in vivo [9]: 4.68 h | total protein half-life in vivo [10]: 7.998 ± 0.022 h | total protein half-life in vivo [11]: 5.12 ± 0.23 h | total protein half-life in vivo [12]: 8.61 ± 0.96 h

MTRTNLITGFLGSGKTTSILHLLAHKDPNEKWAVLVNEFGEVGIDGALLADSGALLKEIPGGCMCCVNGLPMQVGLNTLLRQGKPDRLLIEPTGLGHPKQILDLLTAPVYEPWIDLRATLCILDPRLLLDEKSASNENFRDQLAAADIIVANKSDRTTPESEQALQRWWQQNGGDRQLIHSEHGKVDGHLLDLPRRNLAELPASAAHSHQHVVKKGLAALSLPEHQRWRRSLNSGQGYQACGWIFDADTVFDTIGILEWARLAPVERVKGVLRIPEGLVRINRQGDDLHIETQNVAPPDSRIELISSSEADWNALQSALLKLRLATTA
total protein half-life in vivo [1]: 4.59 ± 0.6 h | total protein half-life in vivo [2]: 4.12 ± 0.58 h | total protein half-life in vivo [3]: 3.4 ± 0.12 h | total protein half-life in vivo [4]: 3.83 ± 0.31 h | total protein half-life in vivo [5]: 3.47 ± 0.083 h | total protein half-life in vivo [6]: 2.66 ± 0.31 h | total protein half-life in vivo [7]: 5.66 ± 0.057 h | total protein half-life in vivo [8]: 9.04 ± 0.88 h | total protein half-life in vivo [9]: 3.47 ± 0.12 h | total protein half-life in vivo [10]: 5.62 ± 0.064 h | total protein half-life in vivo [11]: 5.197 ± 0.035 h | total protein half-life in vivo [12]: 9.17 ± 0.28 h

MSELIVSRQQRVLLLTLNRPAARNALNNALLMQLVNELEAAATDTSISVCVITGNARFFAAGADLNEMAEKDLAATLNDTRPQLWARLQAFNKPLIAAVNGYALGAGCELALLCDVVVAGENARFGLPEITLGIMPGAGGTQRLIRSVGKSLASKMVLSGESITAQQAQQAGLVSDVFPSDLTLEYALQLASKMARHSPLALQAAKQALRQSQEVALQAGLAQERQLFTLLAATEDRHEGISAFLQKRTPDFKGR
total protein half-life in vivo [1]: 5.63 h | total protein half-life in vivo [6]: 2.67 h | total protein half-life in vivo [8]: 6.46 h | total protein half-life in vivo [12]: 6.46 h

MAVTKLVLVRHGESQWNKENRFTGWYDVDLSEKGVSEAKAAGKLLKEEGYSFDFAYTSVLKRAIHTLWNVLDELDQAWLPVEKSWKLNERHYGALQGLNKAETAEKYGDEQVKQWRRGFAVTPPELTKDDERYPGHDPRYAKLSEKELPLTESLALTIDRVIPYWNETILPRMKSGERVIIAAHGNSLRALVKYLDNMSEEEILELNIPTGVPLVYEFDENFKPLKRYYLGNADEIAAKAAAVANQGKAK
total protein half-life in vivo [1]: 5.09 ± 0.33 h | total protein half-life in vivo [2]: 5.4 ± 0.96 h | total protein half-life in vivo [3]: 5.11 ± 0.76 h | total protein half-life in vivo [4]: 5.42 ± 0.82 h | total protein half-life in vivo [5]: 4.7 ± 0.09 h | total protein half-life in vivo [6]: 3.18 ± 0.098 h | total protein half-life in vivo [7]: 6.37 ± 0.56 h | total protein half-life in vivo [8]: 10.3 ± 0.34 h | total protein half-life in vivo [9]: 4.85 ± 0.46 h | total protein half-life in vivo [10]: 8.63 ± 0.17 h | total protein half-life in vivo [11]: 6.02 ± 0.45 h | total protein half-life in vivo [12]: 12 ± 0.62 h

MERYESLFAQLKERKEGAFVPFVTLGDPGIEQSLKIIDTLIEAGADALELGIPFSDPLADGPTIQNATLRAFAAGVTPAQCFEMLALIRQKHPTIPIGLLMYANLVFNKGIDEFYAQCEKVGVDSVLVADVPVEESAPFRQAALRHNVAPIFICPPNADDDLLRQIASYGRGYTYLLSRAGVTGAENRAALPLNHLVAKLKEYNAAPPLQGFGISAPDQVKAAIDAGAAGAISGSAIVKIIEQHINEPEKMLAALKVFVQPMKAATRS [P0A877]
total protein half-life in vivo [1]: 3.93 ± 0.57 h | total protein half-life in vivo [2]: 3.89 ± 0.84 h | total protein half-life in vivo [3]: 3.44 ± 0.066 h | total protein half-life in vivo [4]: 4.07 ± 0.48 h | total protein half-life in vivo [5]: 3.69 ± 0.17 h | total protein half-life in vivo [6]: 3.084 ± 0.021 h | total protein half-life in vivo [7]: 5.81 ± 0.23 h | total protein half-life in vivo [8]: 8.972 ± 0.077 h | total protein half-life in vivo [9]: 3.61 ± 0.21 h | total protein half-life in vivo [10]: 5.06 ± 0.87 h | total protein half-life in vivo [11]: 5.39 ± 0.16 h | total protein half-life in vivo [12]: 12 ± 0.5 h

MALHDENVVWHSHPVTVQQRELHHGHRGVVLWFTGLSGSGKSTVAGALEEALHKLGVSTYLLDGDNVRHGLCSDLGFSDADRKENIRRVGEVANLMVEAGLVVLTAFISPHRAERQMVRERVGEGRFIEVFVDTPLAICEARDPKGLYKKARAGELRNFTGIDSVYEAPESAEIHLNGEQLVTNLVQQLLDLLRQNDIIRS [P0A6J1]
total protein half-life in vivo [1]: 4.97 ± 0.48 h | total protein half-life in vivo [2]: 3.79 ± 0.44 h | total protein half-life in vivo [3]: 2.03 ± 0.21 h | total protein half-life in vivo [4]: 2.4 ± 0.82 h | total protein half-life in vivo [5]: 1.72 ± 0.06 h | total protein half-life in vivo [6]: 1.86 ± 0.13 h | total protein half-life in vivo [7]: 4.8 ± 3 h | total protein half-life in vivo [9]: 2.41 h | total protein half-life in vivo [10]: 2.47 h | total protein half-life in vivo [11]: 2.07 h | total protein half-life in vivo [12]: 3.52 ± 0.087 h

MKVSVPGMPVTLLNMSKNDIYKMVSGDKMDVKMNIFQRLWETLRHLFWSDKQTEAYKLLFNFVNNQTGNINASEYFTGAINENEREKFINSLELFNKLKTCAKNPDELVAKGNMRWVAQTFGDIELSVTFFIEKNKICTQTLQLHKGQGNLGVDLRKAYLPGVDMRDCYLGKKTMKGSNDILYERPGWNANLGVLPRTVLPRTVLTRTVLTWTVLP
total protein half-life in vivo [1]: 4.07 h

MEWLVKKSCCNKQDNRHVLMLCDAGGAIKMIAEVKSDFAVKVGDLLSPLQNALYCINREKLHTVKVLSASSYSPDEWERQCKVAGKTQ
total protein half-life in vivo [1]: 5.09 ± 0.77 h | total protein half-life in vivo [3]: 3.24 h | total protein half-life in vivo [4]: 3.35 h | total protein half-life in vivo [5]: 4.9 h | total protein half-life in vivo [6]: 2.04 ± 0.53 h | total protein half-life in vivo [7]: 4.32 h | total protein half-life in vivo [8]: 7.64 ± 1.4 h | total protein half-life in vivo [10]: 4.88 h | total protein half-life in vivo [11]: 4.39 h | total protein half-life in vivo [12]: 7.16 ± 1.1 h
